± gives the standard error. Variants at the floor of the assay were thinned out.
B1: glmS ribozyme (parent)
chain: AUAAAAGCGCCAGAACUACAGAAAUGUAGUUGACGAGGAGGAGGUUUAUCGAAUUUUCGGCGGAUGCCUCCAAA

What was measured:
Settings in all cases: with glucosamine-6-phosphate
[1] = variants of: B1; test: self-cleavage kobs at 160 uM GlcN6P; higher = faster cleavage; RNA array
Summary of the method: (§1)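 Barcoded ribozyme variants on sequenced MiSeq chips were transcribed in situ by E. coli RNA polymerase and followed at 37 °C through a hybridised Cy3 probe. Glucosamine-6-phosphate at 40 μM to 10 mM in HEPES/KCl/Mg(OAc)2 buffer was flowed in, and tiles were imaged over ~14 h. Signals were normalised to baseline and to non-cleaving reference variants, and per-tile medians were fit to one- or two-exponential decays to give kobs. Weighted Michaelis–Menten fits across concentrations gave kcat and KM.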

[2] = variants of: B1; test: self-cleavage kobs at 640 uM GlcN6P; higher = faster cleavage; RNA array
Summary of the method: as §1

[3] = variants of: B1; test: self-cleavage kobs at 2500 uM GlcN6P; higher = faster cleavage; RNA array
Summary of the method: as §1

[4] = variants of: B1; test: self-cleavage kobs at 10000 uM GlcN6P; higher = faster cleavage; RNA array
Summary of the method: as §1

Variant | self-cleavage kobs at 160 uM GlcN6P [1] | self-cleavage kobs at 640 uM GlcN6P [2] | self-cleavage kobs at 2500 uM GlcN6P [3] | self-cleavage kobs at 10000 uM GlcN6P [4]
AUAAAAGCGCCAGAUCUACAGAAAUGUAGUUGACGAGGAGGCGGUUUAUCGAAUUUUCGGCGGAUGCCUCCAAA [A15U A42C] | < 1e-05 s⁻¹ | < 1e-05 s⁻¹ | < 1e-05 s⁻¹ | < 1e-05 s⁻¹
AUAAAAGCGCCAGAAAUACAGAAAUGUAGUUGACGAGGUGGAGGUUUAUCGAAUUUUAGGCGGAAGCCUCCAAA [C16A A39U C58A U65A] | < 1e-05 s⁻¹ | < 1e-05 s⁻¹ | < 1e-05 s⁻¹ | 
AUAAAAGCGCCAGAAGUACAGAAAUGUAUUUGACGAAGAGGAGGUUUAUCGAAUUUUCGGCGGAUGCCUCCAAA [C16G G29U G37A] | 5.27e-05 ± 1.6e-05 s⁻¹ | 0.000272 ± 7.4e-05 s⁻¹ | 0.000382 ± 9.7e-05 s⁻¹ | 
AUAAAAGCGCCAGAAUUACAGAAAUGUAGUUGACGUGGAGGAGGUUUAUCGAAUCCUGGGCGGAUGCCUCCAAA [C16U A36U U55C U56C C58G] | < 1e-05 s⁻¹ |  | < 1e-05 s⁻¹ | 
AUAAAAGCGCCAGAAGUACAGAAAUGUAGUUGACGAGGAGGAGCUUUAUCGAAUUUUCGGCGGAUGCUUCCAAA [C16G G44C C68U] | < 1e-05 s⁻¹ |  | < 1e-05 s⁻¹ | 
AUAAAAGCGCCAGAGCUACAGAAAUGUAGUUGACGAGGAGGAGGUUCAUCGAAUUUUCGGCGAAUGCCUCCAAA [A15G U47C G63A] | < 1e-05 s⁻¹ | < 1e-05 s⁻¹ | < 1e-05 s⁻¹ | 
AUAAAAGCGCCAGAAUUACAGAAAUGUAGUUGACGAGGAGGAGGUUUAUCGAAUUUUAGGCGGAUGCCUCCAAA [C16U C58A] | 0.000528 ± 0.00025 s⁻¹ | 0.000131 ± 2.7e-05 s⁻¹ | 0.000305 ± 6.1e-05 s⁻¹ | 0.00094 ± 0.00015 s⁻¹
AUAAAAGCGCCAGAUCUACAGAAAUGUAGUUGUCGAGGAGGAGGUUUAUUUAAUUUUCGGCUAAUGCCUUCAAA [A15U A33U C50U G51U G62U G63A C70U] | 9.07e-05 ± 2.6e-05 s⁻¹ | 0.000118 ± 3.6e-05 s⁻¹ | 7.13e-05 ± 2.3e-05 s⁻¹ | 
AUAAAAGCGCCAGAGCUACACAAAUGUAGUUGACGAGGGCGAGGUUUCUCGAAUUUUUGGCGGAUGCCUCCAAA [A15G G21C A39G G40C A48C C58U] | < 1e-05 s⁻¹ |  |  | 
AUAAAAGCGCCAGAGUUACAGAAAUGUAGUUGUCGAGGGGGAGGUUUAUCGAAUUUUCGGCGGAUGCCUCCAAA [A15G C16U A33U A39G] | < 1e-05 s⁻¹ |  |  | 
AUAAAAGCGCCAGAGCUACAGAAAUGUAGUUGACGAGGAGGAGGUUUAUCUAAUUUUCAGCGGAUGCCUCCAAA [A15G G51U G59A] | < 1e-05 s⁻¹ |  | < 1e-05 s⁻¹ | < 1e-05 s⁻¹
AUAAAAGCGCCAGAAUUACAGAAAUGUAGUUGACGAGGAGGAGGUUUAUCGGAUUUUCGGCGGAUGCUUCCAAA [C16U A52G C68U] | 6.54e-05 ± 2.2e-05 s⁻¹ | 0.000491 ± 0.00012 s⁻¹ | 0.000422 ± 0.00016 s⁻¹ | 
AUAAAAGCGCCAGAAGUACAGAAAUGUAGUUGCCGAGGAGGAGGUUUAUCGAAUUUUCGGCGGAUGCCUCUAAA [C16G A33C C71U] | < 1e-05 s⁻¹ | < 1e-05 s⁻¹ | < 1e-05 s⁻¹ | 
AUAAAAGCGCCAGAAGUACAGAAAUGUAGUUGACGAGGAGGAGGUUUAUCGAAUUUUCGGCCGAUGCCUCCAAA [C16G G62C] | < 1e-05 s⁻¹ | < 1e-05 s⁻¹ | < 1e-05 s⁻¹ | 

From the supplement of paper PMC7125110
